Reference: patent publication CN111484562A

Biological target: 人CD22(hCD22)蛋白 (human) (UniProt P20273)
Test: phage ELISA, 0.5 ug/ml hCD22 coated, phage supernatant, anti-M13-HRP

Chain of UniProt P20273 (P20273 20-687 limits assumed): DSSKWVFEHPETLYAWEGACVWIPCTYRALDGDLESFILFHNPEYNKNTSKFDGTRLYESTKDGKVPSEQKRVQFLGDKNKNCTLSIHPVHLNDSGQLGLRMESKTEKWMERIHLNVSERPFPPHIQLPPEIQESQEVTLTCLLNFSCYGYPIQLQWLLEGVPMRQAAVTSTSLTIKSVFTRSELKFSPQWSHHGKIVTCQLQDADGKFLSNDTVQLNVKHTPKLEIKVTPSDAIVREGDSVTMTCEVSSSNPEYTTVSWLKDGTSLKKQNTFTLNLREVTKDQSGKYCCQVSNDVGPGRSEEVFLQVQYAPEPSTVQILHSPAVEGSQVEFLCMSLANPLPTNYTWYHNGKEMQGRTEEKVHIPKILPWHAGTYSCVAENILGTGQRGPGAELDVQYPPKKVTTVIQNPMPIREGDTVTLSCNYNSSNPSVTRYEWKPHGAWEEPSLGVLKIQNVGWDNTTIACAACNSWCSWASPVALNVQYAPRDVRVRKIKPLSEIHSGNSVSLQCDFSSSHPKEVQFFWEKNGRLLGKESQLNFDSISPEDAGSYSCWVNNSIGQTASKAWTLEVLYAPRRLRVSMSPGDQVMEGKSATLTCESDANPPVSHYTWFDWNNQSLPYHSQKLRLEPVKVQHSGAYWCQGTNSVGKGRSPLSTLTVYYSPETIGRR

- OD450: > 1.5 OD450
B1: CD22抗体 (scFv单链抗体, 抗CD22) (scFv)
scFv: DIVMTQSPSSLSASVGDRVTITCRASQSINNYLNWYQQKPGKAPKLLISAASSLQSGVPSRFSGSGSGTDFTLTISSLQPEDFATYYCQQSYTTPLTFGGGTKVEIRGSTSGSGKPGSGEGSTKGQVQLQQSGPGLVESSQILSLTCAISGDSVSSNSATWNWIRLSPSRGLEWLGRTYYRSTWYNDYPASVKGRIIIDPDTSKNQFSLLLSSVTPEDTAVYYCARELVPRGATIGFDYWGQGTLVTVSS
